Reference: patent US20160137728A1

Target: T1, Thermus thermophilus wild type SlyD polypeptide (Thermus thermophilus)
T1 sequence: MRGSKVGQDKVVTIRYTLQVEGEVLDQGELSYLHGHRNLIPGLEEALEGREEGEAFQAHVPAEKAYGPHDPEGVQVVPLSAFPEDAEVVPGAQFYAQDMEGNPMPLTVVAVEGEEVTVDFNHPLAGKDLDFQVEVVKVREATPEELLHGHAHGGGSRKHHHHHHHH
Assay: ELISA, clone culture supernatant

reactivity [mE]: 32 mE
B1: MAb<h-IGF-1>M-11.09.15 (antibody, V domains shown)
VH: QVQLQQSGAELVRPGSSVKISCKASGYAFSNLWMNWVKQRPGQGLEWIGQIYPGDGDTNYYGDFKGKATLTADSSSSTAYMQLSRLTSEDSAVYFCARIGYYGMDYWGQGTSVTVSS
VL: DVVLTQTPLSLPVNIGDEASISCKSTKSLLSSDGLTYLDWYLQKPGQSPQVLIYLVSNRFSGVPDRFSGSGSGTDFTLKISRVEAEDLGVYYCFQSNYLPTFGAGTKLELK
